Test results reported in the supplement of paper PMC9170038.

System: K4 kissing-loop RNA reporter
Test: apparent KD of K4 kissing-loop reporter; higher = weaker reporter binding
Conditions: Eterna round: R107
Description: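 RNA-MaP round R107: designed RNA switches with theophylline, tryptophan, arginine or FMN aptamers are transcribed on-chip within common flanks. They are titrated with a labelled K4 kissing-loop RNA reporter in RNA-MaP buffer (100 mM Tris pH 7.5, 80 mM KCl, 4 mM MgCl2), without ligand or with the indicated ligand. Median apparent KD per design.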

[1] = input ligand: theophylline 20 uM
[2] = input ligand: tryptophan 2.4 mM
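Also: bound reporter read as fluorescence of individual clusters on recovered sequencing chips by microscopy, with normalized cluster intensities fitted with a binding model.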

Sequence | apparent KD of K4 kissing-loop reporter (input ligand: FMN 200 uM) [nM] | apparent KD of K4 kissing-loop reporter (input ligand: arginine 13.2 mM) [nM] | apparent KD of K4 kissing-loop reporter (input ligand: none) [nM] | apparent KD of K4 kissing-loop reporter [1] [nM] | apparent KD of K4 kissing-loop reporter [2] [nM]
CGUGAGGACCAGAGGUGAUGUAUAGUAUCGCGAGGACCGGUACGGCCGCCACUCGUGAAGAGAAAGGAGUGAUGUUCCGUAAUGG [Kazoo C10] | 343 | 292 | 304 | 377 | 110
UCCUGCAAUCGACCACGAAAGUGGAUUGAUACCAGAGUCGAAAGACUCCCUUGGCAGCGAGUGAUGUUCGAAGCAGGUAAAUAAA | 626 | 455 | 539 | 457 | 426
UUUCGUCUCUGAGGAUAUCAGAGGAGAGUGAUGUUCUCCCAUAGCCCAGUGAUGUUGGAUGCUAUCUGAGAAGGCAGUGGGCGAA [Same State FMN B GF 13] | 143 | 141 | 164 | 144 | 155
AAUGUACAGGGAAGGAGCGUCGUCCAGUGAUGUUGGAGUUAAAUACCAGUGAUGUUGGUUAGACAGGUAGGUCGCCCUAAAGUGC [Exclusion Arginine B Gf 3] | 104 | 80.2 | 92 | 95 | 88
CUAUGGGUGGACGAUACCAGCUAGUGAUGUUAGCGGGUCGAGCACGCGCAUCGCCGUGGUAGCCCUUGGCAGCGUACAGAUGUUU [theeternabot_exclusion_KL_Theo_B_5] | 186 | 131 | 178 | 157 | 162
UGUAUGGACUGAAGGAGCGCUAGGUAUGUGAGUGAUGUUCAUAUAAAUGUAUAAAGGGUUUGGCAGGUAGGUCGCAGUCCAUACU [KL-SSArg B6] | 213 | 122 | 227 | 154 | 188
UCGUCCGGAUUACUCGUGGUCAUGGUCGAUACCAGUAGAUUAAUCUACCCUUGGCAGCGACAUGAGUGAUGUUCAUGUGCAAUGA [KL-XTheo-A6 #analogue] | 383 | 341 | 360 | 492 | 383
UUGAGCCGGACCCAAGUCCGGCUCUGCGAGCGAGGACCGGUACGGCCGCCACUCGGUGCAGUGAUGUUGCAUGGCCGCAAGGCCG [#2 Exclusion - Tryptophan A Attempt #7 (HarryS)] | 439 | 294 | 377 | 372 | 460
ACCUUUUUUGCCAGUGAUGUUGGACAGGAAGGAGCGGGCAUAAGCCCAGGUAGGUCGCCUGUCAACUUUCUUAUAGCCCUAAGGU [KL-XArg-A17] | 365 | 270 | 507 | 479 | 349
CGUUUAUAGCAGGAUACCAGUGCGGAUAAGGUGCGUUAAUAGUAGAGUGAUGUUCUAAAGUACCCUUGGCAGCUUAGAGUGAGUG [#21 K4 Theophylline B Exclusion] | 202 | 144 | 145 | 273 | 108
GGACAAGUUUCCGAUACCAGCCUUUAUGCUGGACUAGCUUGAUCAGUGGCUAGUGAUGUUGGCCCUUGGCAGCGGGACUCUUCGG [theeternabot_exclusion_KL_Theo_B_10] | 221 | 204 | 217 | 238 | 218
UUCUACGUGCAAGGAUAUCCAUACGCUGCCCAGCGGGUAGCGAUAUAUGGAGUGAUGUUCCAUGUAGGAGAAGGUGCACUGUCCU [Atrea] | 149 | 386 | 457 | 466 | 475
AUGACAGAAUCGGCCGCCACUCAUUGUCCUGUGGACAUUCUAGGAUUAGUGAUGUUUUUCCCAUCGAGGACCGGGAUACAGAUUG [theeternabot_sameState_KL_Trp_B_6] | 675 | 267 | 467 | 398 | 519
GGCCCGGGCGCGGCCGCCACUCCCUCGUACCGAAAGGUAUGAUACCGAGUGAUGUUCGGUUGGAGGAGGACCGGGCGCCCGGGCC [#2 Exclusion - Tryptophan B Attempt #4 (HarryS)] | 140 | 129 | 105 | 80.7 | 152
AACGCUGUGAAUAACACAGCGAAUAAUUCGCGAGGACCGGUACGGCCGCCACUCGCUAACUGCGAGUGAUGUUCGAUAAUAAAAU [Mat - Mod of OpenEnded 3 - D12] | 148 | 116 | 177 | 237 | 113
GGGACGCUAGCUCGAAUGUAGUGAUUUGAUACCAGCCUGUCACUUGGCCCUUGGCAGCAAAGCAGAGUGAUGUUCUGACCAACCU [theeternabot_sameState_KL_Theo_A_47] | 189 | 298 | 235 | 346 | 144
ACAGGAUCGAAAGAUCCUGAGCAGUCAAAACGAGGACCGGUACGGCCGCCACUCGAAUAAGAGAGUGAUGUUCUCGACUGCAAAA [Omei inspired 10 - Reversed #K4Late] | 939 | 826 | 1210 | 1050 | 223
